The text below walks through data of article doi:10.1101/2023.03.26.534243.

What all share (assay): BLI
On the technique in general: Biolayer interferometry detects binding as a change in optical thickness at a sensor tip.

For test [1], the target named is FcγRIIb/c (UniProt P31994).
In test [2] the target is FcγRIIa_(H167) (UniProt P12318).
The target of test [3] is FcγRIIIa_(F176) (UniProt P08637).
Test [4] deals with FcγRIa (UniProt P12314).
Test [5] addresses FcγRIIIa_(V176) (UniProt P08637).

UniProt P12314, sequence (P12314 16-292): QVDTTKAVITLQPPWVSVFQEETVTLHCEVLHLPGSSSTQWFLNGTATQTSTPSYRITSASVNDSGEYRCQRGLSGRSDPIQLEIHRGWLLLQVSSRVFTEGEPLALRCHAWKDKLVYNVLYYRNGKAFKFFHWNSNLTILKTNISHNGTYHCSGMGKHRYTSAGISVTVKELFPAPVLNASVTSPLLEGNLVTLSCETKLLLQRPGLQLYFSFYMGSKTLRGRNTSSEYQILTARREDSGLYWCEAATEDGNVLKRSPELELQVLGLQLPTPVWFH
UniProt P12318, sequence (P12318 34-217): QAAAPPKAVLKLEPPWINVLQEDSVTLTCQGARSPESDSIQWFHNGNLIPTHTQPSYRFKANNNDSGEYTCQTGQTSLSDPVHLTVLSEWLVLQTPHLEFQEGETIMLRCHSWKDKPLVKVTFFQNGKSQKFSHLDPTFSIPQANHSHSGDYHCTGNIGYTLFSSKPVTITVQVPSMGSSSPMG
UniProt P31994, sequence (P31994 43-217): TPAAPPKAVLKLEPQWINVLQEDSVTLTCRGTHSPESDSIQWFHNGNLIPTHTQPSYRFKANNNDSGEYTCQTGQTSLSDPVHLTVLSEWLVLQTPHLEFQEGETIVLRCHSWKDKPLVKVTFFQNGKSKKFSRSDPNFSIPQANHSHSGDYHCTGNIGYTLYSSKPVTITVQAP

Substance Pertuzumab IgG2 VH1 (antibody) displayed a kon in test [1] of 176000 M⁻¹ s⁻¹.

As for Pertuzumab IgG2 VH3 (antibody), the kon in test [1] was 308000 M⁻¹ s⁻¹. Pertuzumab IgG2 VH4 (antibody) displayed a kon in test [2] of 360000 M⁻¹ s⁻¹. The koff in test [1] came to 0.00934 s⁻¹. As to Pertuzumab IgG3 VH1 (antibody), in test [3], the dissociation constant (Kd) was determined as 92.9 nM, the koff was 0.0328 s⁻¹ and the kon was found to be 160000 M⁻¹ s⁻¹. In test [4], this substance registered a koff of 0.000553 s⁻¹ and a kon of 208000 M⁻¹ s⁻¹. In turn, Pertuzumab IgG3 VH3 (antibody) returned a Kd in test [2] of 5.75 nM. In test [5], this substance returned a Kd of 181 nM, a koff of 0.0178 s⁻¹ and an on-rate constant (kon) of 13500 M⁻¹ s⁻¹. As to Pertuzumab IgG3 VH4 (antibody), in test [5], the Kd worked out at 88.7 nM. This substance registered a kon in test [1] of 72900 M⁻¹ s⁻¹. Turning to Pertuzumab IgG3 VH5 (antibody), the koff in test [2] was found to be 0.00279 s⁻¹. This substance also had a Kd in test [1] of 24.8 nM. In test [4], Pertuzumab IgG4 VH1 (antibody) showed a Kd of 3.62 nM.

As for Pertuzumab IgG4 VH2 (antibody), the Kd in test [4] was determined as 75.7 nM.

In turn, Pertuzumab IgG4 VH3 (antibody) gave a dissociation constant (Kd) in test [4] of 127 nM.

The substance Pertuzumab IgG4 VH4 (antibody) showed a Kd in test [4] of 191 nM. On the same count and under the same terms, with Pertuzumab IgG4 VH5 (antibody) the figure was 151 nM; with Pertuzumab IgG4 VH6 (antibody), 7.15 nM; with Pertuzumab IgG4 VH7 (antibody), 20.7 nM.

For orientation: kon means a measure of how fast the partners come together. Lower therefore signals slower complex formation. The term koff denotes the first-order rate constant of dissociation. A low value points to a long-lived complex. What is called Kd is a measure of binding affinity in units of concentration. Lower therefore signals higher affinity.
